Where a SMILES comes first, the peptide text is derived from it. Bridges are numbered along the chain shown (N, C = ends). [ ]: non-standard residue; d: D form. S5 = C=CCCC[C@](C)(N)C(=O)O

The values that follow come from patent publication US20250163122A1, “COMPOSITIONS AND METHODS FOR TREATING AIRWAY MUCUS DYSFUNCTION” (BOARD OF REGENTS, THE UNIVERSITY OF TEXAS SYSTEM, priority 2022, published 2025).

Test [1] addresses T1, neuronal SNAREs and Syt1_QM (Rattus norvegicus, UniProt P21707, E295A/R281A/R398A/R399A/Y338W).
T1 construct: made in house
As to the kind of experiment: Single vesicle content mixing assay, neuronal SNAREs and Syt1_QM. The test is classed as biochemical. The note with it: 10 μM peptide, raw count; for Ca2+ triggered fusion events: 500 μM Ca2+. An excerpt:
(§1) For single vesicle content mixing assay, the lipid composition of the SV, SG, VAMP2, or VAMP8 vesicles was phosphatidylcholine (PC) (48%), phosphatidylethanolamine (PE) (20%), phosphatidylserine (PS) (12%), and cholesterol (20%); for both the neuronal and airway PM vesicles the lipid composition was Brain Total Lipid Extract supplemented 3.5 mol % PIP2, and 0.1 mol % biotinylated phosphatidylethanolamine (PE).
(§2) The reconstitution method for neuronal PM and SV vesicles was described in detail previously (see Lai et al., 2017; Kyoung et al., 2011; and Lai et al., 2014). The same methods were used for airway PM, SG, VAMP2, and VAMP8 vesicles. Dried lipid films were dissolved in 110 mM OG buffer containing purified proteins at protein-to-lipid ratios of 1:200 for VAMP2 and Stx1A for SV and neuronal PM vesicles, respectively (or 1:200 for VAMP8 and Stx3 for SG and airway PM vesicles, respectively), and 1:800 for Syt1 for SV vesicles (or 1:1200 for Syt2 for SG vesicles).
(§3) A 3-5 fold excess of SNAP-25A or SNAP-23 (with respect to Stx1A or Stx3) and 3.5 mol % PIP2 were added to the protein-lipid mixture for neuronal or airway PM vesicles. […] For the preparation of SV, SG, VAMP2, or VAMP8 vesicles for single vesicle content mixing assay, 50 mM sulforhodamine B (Thermo Fisher Scientific) was added to the protein-lipid mixture. The vesicles subsequently formed during size exclusion chromatography using a Sepharose CL-4B column, packed under near constant pressure by gravity with a peristaltic pump (GE Healthcare) in a 5.5 ml column with a ˜5 ml bed volume that was equilibrated with buffer V (20 mM HEPES, pH 7.4, 90 mM NaCl) supplemented with 20 μM EGTA and 0.1% 2-mercaptoethanol. The eluent was subjected to dialysis into 21 of detergent-free buffer V supplemented with 20 μM EGTA, 0.1% 2-mercaptoethanol, 5 g of Bio-beads SM2 (Bio-Rad) and 0.8 g/L Chelex 100 resin (Bio-Rad). After 4 hours, the buffer was exchanged with 21 of fresh buffer V supplemented with 20 μM EGTA, 0.1% 2-mercaptoethanol and Bio-beads, and the dialysis continued for another 12 h (overnight). […] For ensemble lipid mixing assay, the reconstitution method is the same as that for the single vesicle content mixing assay, except that 50 mM sulforhodamine B was omitted for all the steps.
(§4) Single vesicle content mixing experiments. All single vesicle fusion and single molecule experiments were performed on a prism-type total internal reflection fluorescence (TIRF) microscope using 532 nm (green) laser (CrystaLaser) excitation. Two observation channels were created by a 640 nm single-edge dichroic beamsplitter (FF640-FDi01-25x36, Shemrock): one channel was used for the fluorescence emission intensity of the content dyes and the other channel for that of the Cy5 dye that are part of the injected Ca^2+-solution. The two channels were recorded on two adjacent rectangular areas (45×90 m^2) of a charge-coupled device (CCD) camera (iXon+DV 897E, Andor Technology). The imaging data were recorded with the smCamera software developed by Taekjip Ha, Johns Hopkins University, Baltimore.
(§5) Flow chambers were assembled by creating a “sandwich” consisting of a quartz slide and a glass coverslip that were both coated with polyethylene glycol (PEG) molecules consisting 0.1% (w/v) biotinylated-PEG except when stated otherwise, and using double-sided tape to create up to five flow-chambers.
(§6) The single vesicle content mixing assay described in Lai et al. (2014) was used to monitor vesicle-vesicle association, Ca^2+-independent, and Ca^2+-triggered fusion. The surface of the quartz slides was passivated by coating the surface with polyethylene glycol (PEG) molecules which alleviated non-specific binding of vesicles. The same protocol and quality controls (surface coverage and non-specific binding) were used as described previously (Kyoung et al., 2011; Kyoung et al., 2012) except that PEG-SVA (Laysan Bio) instead of mPEG-SCM (Laysan Bio) was used since it has a longer half-life. […]

A further test addresses airway SNAREs and Syt2 (Rattus norvegicus, UniProt P29101). The experiment in a line: Single vesicle content mixing assay, airway SNAREs and Syt2 (airway PM and SG vesicles). The test is classed as biochemical. Conditions: for Ca2+ triggered fusion events / Ca2+ independent fusion events: 10 μM peptide, raw count; for Ca2+ triggered fusion events: 500 μM Ca2+.
Description: as §1, §2, §3, §4, §5, §6

Sequence of airway SNAREs and Syt2 (P29101 whole entry, the tested form may be a part): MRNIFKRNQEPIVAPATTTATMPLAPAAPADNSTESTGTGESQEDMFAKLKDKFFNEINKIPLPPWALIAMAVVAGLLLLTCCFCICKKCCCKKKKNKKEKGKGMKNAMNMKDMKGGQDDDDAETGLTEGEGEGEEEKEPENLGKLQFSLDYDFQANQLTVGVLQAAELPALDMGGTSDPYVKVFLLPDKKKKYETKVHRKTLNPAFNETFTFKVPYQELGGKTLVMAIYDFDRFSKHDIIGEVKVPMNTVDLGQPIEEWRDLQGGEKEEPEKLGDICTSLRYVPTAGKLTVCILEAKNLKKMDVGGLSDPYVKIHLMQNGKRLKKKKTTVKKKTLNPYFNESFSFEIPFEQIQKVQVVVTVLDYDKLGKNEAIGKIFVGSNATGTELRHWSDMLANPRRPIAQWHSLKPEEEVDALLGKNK
T1 sequence (P21707 whole entry R281A/E295A/Y338W/R398A/R399A): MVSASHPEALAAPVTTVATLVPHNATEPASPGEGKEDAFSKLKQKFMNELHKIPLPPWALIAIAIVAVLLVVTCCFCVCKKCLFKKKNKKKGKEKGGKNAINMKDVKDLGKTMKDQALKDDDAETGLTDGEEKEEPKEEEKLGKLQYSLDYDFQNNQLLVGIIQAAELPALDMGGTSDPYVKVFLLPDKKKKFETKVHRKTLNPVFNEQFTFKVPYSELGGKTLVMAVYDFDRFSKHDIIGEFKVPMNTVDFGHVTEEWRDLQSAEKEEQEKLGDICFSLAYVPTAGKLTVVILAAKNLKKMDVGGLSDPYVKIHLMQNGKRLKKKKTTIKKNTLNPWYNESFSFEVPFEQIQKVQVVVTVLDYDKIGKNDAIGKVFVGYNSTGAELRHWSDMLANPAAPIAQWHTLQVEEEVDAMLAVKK

Consider “Ac-SKDA(S5)IRT(S5)VM(S5)DEQ(S5)EQL-amide (Ac-SKDA[S5]IRT[S5]VM[S5]DEQ[S5]EQL-NH2; staple 12-16, 5-9; SMILES CC[C@H](C)[C@@H]1NC(=O)[C@@](C)(NC(=O)[C@H](C)NC(=O)[C@H](CC(=O)O)NC(=O)[C@H](CCCCN)NC(=O)[C@H](CO)NC(C)=O)CCCC=CCCC[C@@](C)(C(=O)N[C@H](C(=O)N[C@@H](CCSC)C(=O)N[C@@]2(C)CCCC=CCCC[C@@](C)(C(=O)N[C@@H](CCC(=O)O)C(=O)N[C@@H](CCC(N)=O)C(=O)N[C@@H](CC(C)C)C(N)=O)NC(=O)[C@H](CCC(N)=O)NC(=O)[C@H](CCC(=O)O)NC(=O)[C@H](CC(=O)O)NC2=O)C(C)C)NC(=O)[C@H]([C@@H](C)O)NC(=O)[C@H](CCCNC(=N)N)NC1=O) [SP4]”, for which, in test [1], the “Ca2+ triggered fusion events” value amounted to 248 and the “Ca2+ independent fusion events” value was 222. Further, in the test with airway SNAREs and Syt2, the “Ca2+ triggered fusion events” value was found to be 231 and the “Ca2+ independent fusion events” value came out at 237.

“EESKDAGIRTLVMLDEQGEQLD [Peptide P0, non-stapled SNAP-25A fragment used as a control, reference compound]”: in the test with airway SNAREs and Syt2, the “Ca2+ triggered fusion events” value came out at 219 and the “Ca2+ independent fusion events” value was 113. Besides, in the test with airway SNAREs and Syt2 (up to 10 μM peptide), the “effect on Ca2+-triggered cumulative fusion probability” value is reported as “no effect” and the “effect on intrinsic Ca2+-independent fusion probability” value was “no effect”.

Consider “Ac-SKD(S5)GIR(S5)LVMLDE(S5)GEQ(S5)DR-amide (Ac-SKD[S5]GIR[S5]LVMLDE[S5]GEQ[S5]DR-NH2; staple 15-19, 4-8; SMILES CC[C@H](C)[C@@H]1NC(=O)CNC(=O)[C@@](C)(NC(=O)[C@H](CC(=O)O)NC(=O)[C@H](CCCCN)NC(=O)[C@H](CO)NC(C)=O)CCCC=CCCC[C@@](C)(C(=O)N[C@@H](CC(C)C)C(=O)N[C@H](C(=O)N[C@@H](CCSC)C(=O)N[C@@H](CC(C)C)C(=O)N[C@@H](CC(=O)O)C(=O)N[C@@H](CCC(=O)O)C(=O)N[C@@]2(C)CCCC=CCCC[C@@](C)(C(=O)N[C@@H](CC(=O)O)C(=O)N[C@@H](CCCNC(=N)N)C(N)=O)NC(=O)[C@H](CCC(N)=O)NC(=O)[C@H](CCC(=O)O)NC(=O)CNC2=O)C(C)C)NC(=O)[C@H](CCCNC(=N)N)NC1=O) [SP1]”, for which the “Ca2+ triggered fusion events” value in test [1] worked out at 282; with airway SNAREs and Syt2, 275. Moreover, the “Ca2+ independent fusion events” value in test [1] is 226; with airway SNAREs and Syt2 it was 251.

Consider “Ac-SKD(S5)GIR(S5)LV(S5)LDE(S5)GEQL-amide (Ac-SKD[S5]GIR[S5]LV[S5]LDE[S5]GEQL-NH2; staple 11-15, 4-8; SMILES CC[C@H](C)[C@@H]1NC(=O)CNC(=O)[C@@](C)(NC(=O)[C@H](CC(=O)O)NC(=O)[C@H](CCCCN)NC(=O)[C@H](CO)NC(C)=O)CCCC=CCCC[C@@](C)(C(=O)N[C@@H](CC(C)C)C(=O)N[C@H](C(=O)N[C@@]2(C)CCCC=CCCC[C@@](C)(C(=O)NCC(=O)N[C@@H](CCC(=O)O)C(=O)N[C@@H](CCC(N)=O)C(=O)N[C@@H](CC(C)C)C(N)=O)NC(=O)[C@H](CCC(=O)O)NC(=O)[C@H](CC(=O)O)NC(=O)[C@H](CC(C)C)NC2=O)C(C)C)NC(=O)[C@H](CCCNC(=N)N)NC1=O) [SP10]”, for which, in test [1], the “Ca2+ triggered fusion events” value was 367 and the “Ca2+ independent fusion events” value turned out to be 252. For the same compound, in the test with airway SNAREs and Syt2, the “Ca2+ triggered fusion events” value worked out at 273 and the “Ca2+ independent fusion events” value is reported as 327.

For `CC[C@H](C)[C@H](NC(=O)[C@]1(C)CCCC=CCCC[C@](C)(NC(=O)[C@H](CCC(=O)O)NC(=O)[C@H](CCC(=O)O)NC(C)=O)C(=O)N[C@@H](CCCCN)C(=O)N[C@@H](CC(=O)O)C(=O)N[C@@H](C)C(=O)N1)C(=O)N[C@@H](CCCNC(=N)N)C(=O)N[C@@]1(C)CCCC=CCCC[C@@](C)(C(=O)N[C@@H](CC(=O)O)C(=O)N[C@@H](CCC(=O)O)C(=O)N[C@@H](CCC(N)=O)C(=O)N[C@@H](CS)C(N)=O)NC(=O)[C@H](CCSC)NC(=O)[C@H](C(C)C)NC(=O)[C@H](CC(C)C)NC1=O` [SP9, Ac-EE(S5)KDA(S5)IR(S5)LVM(S5)DEQC-amide] (Ac-EE[S5]KDA[S5]IR[S5]LVM[S5]DEQC-NH2; staple 3-7, 10-14), in test [1], the “Ca2+ triggered fusion events” value is on record as 260 and the “Ca2+ independent fusion events” value amounted to 242. In addition, at airway SNAREs and Syt2, the “Ca2+ triggered fusion events” value was found to be 250 and the “Ca2+ independent fusion events” value was 274.
